From article PMC10027671

Key:
[1] = target: Adnectin1-tFhuA; assay: single-channel electrical recording (nanopore, resistive pulse); single Adnectin1-tFhuA sensor in a planar lipid bilayer, 20 nM EGFR cis, in the presence of 5% (v/v) fetal bovine serum; +20 mV; filtered at 500 Hz
[2] = target: Adnectin1-tFhuA; assay: single-channel electrical recording (nanopore, resistive pulse); single Adnectin1-tFhuA sensor in a planar lipid bilayer, EGFR added to the cis side; +20 mV; 300 mM KCl, 10 mM Tris-HCl, pH 8.0, no TCEP; 24 ± 1 °C; two-exponential capture durations (short- and long-lived)

tau off-1 at 20 nM EGFR with 5% FBS (Fig. 5k) [1]: 0.036 s
tau off-2 (mean duration of long-lived blockades) with 5% FBS [1]: 0.93 s
tau off-2 at 20 nM EGFR with 5% FBS (Fig. 5k) [1]: 0.81 s
tau on (released duration) at 20 nM EGFR with 5% FBS (Fig. 5j) [1]: 0.607 s
tau on-2 with 5% FBS [1]: 1.7 s
tau off-1 at 20 nM EGFR, without FBS (Fig. 5i) [2]: 0.044 s
tau off-2 at 20 nM EGFR, without FBS (Fig. 5i) [2]: 0.982 s
tau on (released duration) at 10 nM EGFR [2]: 0.78 s
tau on (released duration) at 20 nM EGFR [2]: 0.42 s
tau on (released duration) at 20 nM EGFR, without FBS (Fig. 5h) [2]: 0.4 s
tau on (released duration) at 40 nM EGFR [2]: 0.25 s
Substance: ectodomain of epidermal growth factor receptor (EGFR) (from UniProt P00533 25-645) (domain or fragment)
